From PMC12681835

What was measured:
Experiment in all cases: co-IP; HEK293 cells co-transfected with AnkB-220-HA (WT or mutant) and NrCAM plasmids in equimolar amounts; Brij98 lysate diluted in PBS, 0.1% TritonX-100; AnkB-HA precipitated with mouse anti-HA on Protein A/G magnetic beads overnight at 4 °C; blot for NrCAM, reprobed with anti-HA; NrCAM/AnkB ratio by densitometry
[1] = biological target: AnkB-220-HA A373V (maternally inherited ASD missense mutation) (human)
[2] = biological target: AnkB-220-HA H374A (human)
[3] = biological target: AnkB-220-HA H374W (human)
[4] = biological target: AnkB-220-HA R297E (human)
[5] = biological target: AnkB-220-HA R308E (human)

What does the source list for “Neuron-glial related L1-CAM (NrCAM), mouse, WT (natural protein)”?
fold increase of co-immunoprecipitation compared to WT AnkB [1]: 1.7 fold; percent decrease of co-immunoprecipitation compared to WT AnkB [2]: 80%; percent decrease of co-immunoprecipitation compared to WT AnkB [3]: 80%; percent decrease of co-immunoprecipitation compared to WT AnkB [4]: 60%; percent decrease of co-immunoprecipitation compared to WT AnkB [5]: 90%
